± gives the uncertainty stated by the source.
Assay: self-splicing fitness, log relative to wild type (ln ratio); higher = more splicing; Tetrahymena group I intron in knt gene, E. coli kanamycin selection, DiMSum; sequences stand for … in CUCUCU…GGAGGGAAAAGUUAUCAGGCAUGCACCUGGUAGCUAGUCUUUAAACCAAUAGAUUGCAUCGGUUUAAAAGGCAAGACCGUCAAAUUGCGGGAAAGGGGUCAACAGCCGUUCAGUACCAAGUCUCAGGGGAAACUUUGAGAUGGCCUUGCAAAGGGUAUGGUAAUAAGCUGACGGACAUGGUCCUAACCACGCAGCCAAGUCCUAAGUCAACAGAUCUUCUGUUGAUAUGGAUGCAGUUCACAGACUAAAUGUCGGUCGGGGAAGAUGUAUUCUUCUCAUAAGAUAUAGUCGGACCUCUCCUUAAUGGGAGCUAGCGGAUGAAGUGAUGCAACACUGGAGCCGCUGGGAACUAAUUUGUAUGCGAAAGUAUAUUGAUUAGUUUUGGAGUACUCGUGGUCG
Method in brief: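 Six replicate transformations of E. coli BL21(DE3) with a pET-22b(+) library were grown overnight at 37°C or 30°C. The library randomised all eight P1ex-region intron nucleotides, the intron lying in the knt kanamycin-resistance gene, and plates were LB agar with or without 25 μg/mL kanamycin plus 100 μg/mL carbenicillin, 50 μM IPTG and 0.2% rhamnose. Pooled colonies were amplicon-sequenced on an Illumina HiSeq 2500, and fitness is the DiMSum error-weighted combination of wild-type-normalised replicate fold changes, kanamycin versus none.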

Sequence	self-splicing fitness (ln) (30 °C)	self-splicing fitness (ln) (37 °C)
CUGUAGCAAUAUUACGGUUU	-4.11 ± 0.26	-2.69 ± 0.32
CUGUAGCAAUAUUACGUCCU	-3.57 ± 0.4	
CUGUAGCAAUAUUACGUGGG	-3.78 ± 0.22	-2.05 ± 0.18
CUGUAGCAAUAUUACGUUAC	-2.77 ± 0.34	-1.72 ± 0.32
CUUAAGCAAUAUUACGAAGG	-2.89 ± 0.17	-1.54 ± 0.24
CUUAAGCAAUAUUACGACAU	-3.434 ± 0.023	-2.11 ± 0.036
CUUAAGCAAUAUUACGAUCC	-3.31 ± 0.44	
CUUAAGCAAUAUUACGAUCG	-0.53 ± 0.082	0.874 ± 0.12
CUUAAGCAAUAUUACGAUGC	-3.42 ± 0.35	-2.1 ± 0.33
CUUAAGCAAUAUUACGAUGG	-1.17 ± 0.082	-0.43 ± 0.11
CUUAAGCAAUAUUACGAUUA	-3.71 ± 0.26	-2.72 ± 0.21
CUUAAGCAAUAUUACGCAAU		-2.62 ± 0.44
CUUAAGCAAUAUUACGCACC	-1.86 ± 0.45	
CUUAAGCAAUAUUACGCCCU	-3.17 ± 0.32	-1.96 ± 0.43
CUUAAGCAAUAUUACGCCUA	-1.91 ± 0.38	
CUUAAGCAAUAUUACGCCUU		-2.63 ± 0.39
CUUAAGCAAUAUUACGCGUC	-2.08 ± 0.12	-3.25 ± 0.23
CUUAAGCAAUAUUACGCUAA	-3.21 ± 0.39	-1.58 ± 0.3
CUUAAGCAAUAUUACGCUAC	-4.22 ± 0.42	-2.34 ± 0.36
CUUAAGCAAUAUUACGCUGG	-4.54 ± 0.32	-2.64 ± 0.18
CUUAAGCAAUAUUACGGAAG	-2.03 ± 0.17	-0.419 ± 0.14

Sequence	self-splicing fitness (ln) (30 °C)	self-splicing fitness (ln) (37 °C)
CUUAAGCAAUAUUACGGAAU	-3.96 ± 0.31	-2.29 ± 0.31
CUUAAGCAAUAUUACGGAUU	-3.94 ± 0.32	-3.41 ± 0.47
CUUAAGCAAUAUUACGGCCC	-2.8 ± 0.4	
CUUAAGCAAUAUUACGGGGG	-3.65 ± 0.2	-1.26 ± 0.23
CUUAAGCAAUAUUACGGGUU	-2.65 ± 0.19	-3.2 ± 0.27
CUUAAGCAAUAUUACGGUAA		-3.38 ± 0.37
CUUAAGCAAUAUUACGGUAU	-4.7 ± 0.34	-2.35 ± 0.22
CUUAAGCAAUAUUACGUAAC	-3.05 ± 0.24	-1.26 ± 0.2
CUUAAGCAAUAUUACGUAGA	-3.6 ± 0.22	-2.82 ± 0.34
CUUAAGCAAUAUUACGUAGC	-3.71 ± 0.23	
CUUAAGCAAUAUUACGUGAC	-1.91 ± 0.13	-2.06 ± 0.14
CUUAAGCAAUAUUACGUGCC	-4.6 ± 0.38	-1.53 ± 0.18
CUUCAGCAAUAUUACGAACA	-0.812 ± 0.18	-1.3 ± 0.21
CUUCAGCAAUAUUACGAAUG	-0.722 ± 0.065	-0.456 ± 0.093
CUUCAGCAAUAUUACGACGC	-0.697 ± 0.26	0.21 ± 0.28
CUUCAGCAAUAUUACGAGCU	-3.82 ± 0.29	-3.41 ± 0.33
CUUCAGCAAUAUUACGAGUC		-2.56 ± 0.18
CUUCAGCAAUAUUACGAUGU	-3.67 ± 0.21	-2.07 ± 0.2
CUUCAGCAAUAUUACGCGAC	-2.88 ± 0.31	-1.75 ± 0.41
CUUCAGCAAUAUUACGCGGG	-3.7 ± 0.19	-2.61 ± 0.2
CUUCAGCAAUAUUACGGAAC	-2.45 ± 0.16	-2.12 ± 0.33

— the supplement of paper PMC7877785
